Here are results for one molecule from patent EP4796130A1, “ANTI-TISSUE FACTOR ANTIBODY-DRUG CONJUGATE COMPRISING CAMPTOTHECIN DERIVATIVE” (Celltrion, Inc., priority 2023, dated 2025).

This assay concerns HPAFII (human pancreatic cancer xenograft model). The assay can be described thus: In vivo antitumor efficacy, HPAFII xenograft model. On the set-up: species or system CB17 SCID mice. The settings on record: 3 mg/kg i.v. QW × 3.

B1: Isotype-MMAE: ADC in which anti-influenza A antibody (Navivumab, P23) is conjugated with MMAE (MC-vc-PAB-MMAE); DAR 4 (conjugate, chains of the INN, looked up)
VH: QVQLVQSGAEVKKPGASVKVSCKTSGYSFSTYGVSWVRQAPGQGPEWVGWISAYTGITDYAQKFQGRVTLTTDATTATAFLDLRSLRPDDTATYFCARDKVQGRVEVGSGGRHDYWGQGTLVIVSS
VL: EVVLTQSPGTLALPPGERATLSCRASHRVGSTYIAWYQQKSGQAPRRLIYGASNRATDIPDRFSGSGSGTDFTLTIRRLEPEDSAVYYCQQFSVSPWTFGQGTRVEIK
modifications: mc-vc-PAB-MMAE payload, DAR 4
Regarding B1, the “Tumor Volume” value is given as 235 ± 17 mm^3 (day 0, mean ± SEM); 357 ± 38 mm^3 (day 4, mean ± SEM); 424 ± 46 mm^3 (day 7, mean ± SEM); 603 ± 79 mm^3 (day 11, mean ± SEM); 799 ± 98 mm^3 (day 14, mean ± SEM); 2,142 ± 164 mm^3 (day 28, mean ± SEM). Under “day 28 vs control group G1”, this molecule registered a T/Cweight of 90.45%. In addition, the TGI (as a rule, how far tumour growth fell short of that in controls) (day 28 vs control group G1) stood at 10.01%. Besides, where the note is “mean ± SEM”, the “Tumor Weights on Day 28” value is on record as 1.933 ± 0.177 g. Further, where the note is “tumor volume on day 28 vs control group G1”, the T/C (as a rule, the ratio of treated to control) is recorded as 90.99%.
